Laboratory results: PMC11707139

Target: piggyBat transposase (Myotis lucifugus)
Experiment: AUC; sedimentation velocity, ~3.1 µM purified pBat without DNA, 500 mM NaCl, 25 mM Tris-HCl pH 7.4, 0.5 mM TCEP, 50,000 rpm, 20 °C, c(s) analysis

stoichiometry N: 2
Substance: piggyBat transposase (enzyme)
